Laboratory results from patent US20220119517A1.

Legend:
[1] = biological target: human Claudin18.2 (CLDN18.2), full length, on cells (human); assay: FACS on NUGC4 cells
[2] = biological target: human Claudin18.2 (CLDN18.2), full length, on cells (human); assay: cell-based or functional assay
[3] = biological target: human Claudin18.1 (CLDN18.1), full length, on cells (human) (UniProt P56856); assay: FACS on CHO-K1-CLDN18.1 cells

MFI (CLDN18.2) [1]: 93 MFI | in-vitro ADCC activity, Jurkat-CD16A/NF luciferase reporter, EC50 [2]: 13.5 nM | in-vitro ADCC activity, Jurkat-CD16A/NF luciferase reporter, Top [2]: 6190 | MFI (CLDN18.1) [3]: 219 MFI
Substance: human IgG1, kappa isotype control antibody
ADCC cytotoxicity by LDH method, PBMC effectors, Max (%) [2]: 52%
